The values below come from paper PMC4058850, “The Bifunctional Pyruvate Decarboxylase/Pyruvate Ferredoxin Oxidoreductase from Thermococcus guaymasensis” (Archaea, 2014).

The target in data set [1] is bifunctional pyruvate decarboxylase/pyruvate ferredoxin oxidoreductase from Thermococcus guaymasensis, heterotetramer of PorA, PorB, PorD and Por/VorG (Thermococcus guaymasensis (endogenous in DSM 11113)) (UniProt W8CQB2). Nature of the data set: SEC; native enzyme purified from T. guaymasensis (about 1 mg) on HiLoad Superdex-200 in buffer E (50 mM Tris pH 7.8, 5% glycerol, 100 mM KCl, 2 mM DTT, 2 mM SDT), 2.5 mL/min, calibrated with protein standards; SDS-PAGE of the enzyme after the column; apparent Mr 258,000.

In data set [2] the target is T1, PfPDC/POR (Pyrococcus furiosus, UniProt Q51804+Q51805).
T1 construct: gene porA; native, purified anaerobically from P. furiosus cells; no tag; dimer of heterotetramers, about 260 kDa; with Pyruvate synthase subunit PorD; Pyruvate/ketoisovalerate oxidoreductases common subunit gamma
Nature of the data set: PDC activity with desulfo-CoA substituted for CoA. The data set is classed as biochemical. To be noted: PDC reaction; 80°C, anaerobic.

For data set [3], the target named is T2, TgPDC/POR (Thermococcus guaymasensis, UniProt W8CQB2+W8CQR1).
T2 construct: gene porA; native, purified anaerobically from T. guaymasensis cells; no tag; dimer of heterotetramers, 258 kDa by gel filtration; with Pyruvate synthase subunit PorD; Pyruvate/ketoisovalerate oxidoreductases common subunit gamma
T2 sequence (W8CR61 1-105 partner, one chain of several): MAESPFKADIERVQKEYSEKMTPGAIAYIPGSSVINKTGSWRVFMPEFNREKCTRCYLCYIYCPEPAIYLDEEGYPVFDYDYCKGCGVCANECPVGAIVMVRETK
T2 sequence (W8CQB1 1-185 partner, one chain of several): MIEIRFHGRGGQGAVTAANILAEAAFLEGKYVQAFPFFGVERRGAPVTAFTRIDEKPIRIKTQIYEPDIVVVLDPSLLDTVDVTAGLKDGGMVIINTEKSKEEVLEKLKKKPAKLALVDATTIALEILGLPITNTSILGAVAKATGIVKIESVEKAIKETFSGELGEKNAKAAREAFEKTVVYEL
Put plainly: PDC activity with desulfo-CoA substituted for CoA. The class given is biochemical. The note with it: PDC reaction; 80°C, anaerobic.

Data set [4] concerns the target T2, TgPDC/POR. Nature of the data set: POR activity. The data set is classed as biochemical. To be noted: POR reaction; concentration not given.
Data set [5] addresses T1, PfPDC/POR. Nature of the data set: POR activity, pyruvate- and CoA-dependent methyl viologen reduction. The data set is classed as biochemical. The note with it: POR reaction; 80°C, pH 8.4, anaerobic; 100 μM CoASH, 5 mM pyruvate.
Substrate in data set [6]: CC(=O)C(=O)O
Nature of the data set: PDC activity, acetaldehyde as DNPH hydrazone by RP-HPLC. The data set is classed as biochemical, Thermococcus guaymasensis. To be noted: PDC (nonoxidative decarboxylation) reaction, 1 mM CoA, 0.1 mM TPP, Mg2+, optimal pH (9.5), 80°C, anaerobic. The source says: PDC activity, acetaldehyde as DNPH hydrazone by RP-HPLC on TgPDC/POR

Substrate in data set [7]: CC(=O)C(=O)O
Nature of the data set: purified protein. To be noted: POR (oxidative decarboxylation) reaction, 0.1 mM CoA, 1 mM MV, 0.4 mM TPP, Mg2+, pH 8.4 (optimal pH), 80°C, anaerobic. The class given is biochemical, Thermococcus guaymasensis.

Data set [8] deals with the molecule itself. Put plainly: SEC; native enzyme from P. furiosus; HiLoad Superdex-200 in buffer E as a step of the purification; native molecular weight of approximately 260 kDa told in the discussion, how it was estimated is not told for this enzyme.

For the molecule “bifunctional pyruvate decarboxylase/pyruvate ferredoxin oxidoreductase from Thermococcus guaymasensis, heterotetramer of PorA, PorB, PorD and Por/VorG (from UniProt W8CQB2 1-331; W8CR61 1-105) (complex)”, in data set [1], the stoichiometry N (as a rule, the number of molecules, sites or subunits per partner or assembly) was determined as 2.

As for `CCNC(=O)CCNC(=O)[C@H](O)C(C)(C)COP(=O)(O)OP(=O)(O)OC[C@H]1O[C@@H](n2cnc3c(N)ncnc32)[C@H](O)[C@@H]1OP(=O)(O)O` [desulfo-CoA], the “% of activity with CoA” value in data set [2] is ~ 80%; in data set [3] it was ~ 75%. Further, the completely inhibitory entry in data set [4] was “desulfo-CoA, an analogue of CoA, was completely inhibitory for the oxidation (POR) reaction”.

As for `CC(C)(COP(=O)(O)OP(=O)(O)OC[C@H]1O[C@@H](n2cnc3c(N)ncnc32)[C@H](O)[C@@H]1OP(=O)(O)O)[C@@H](O)C(=O)NCCC(=O)NCCS` [coenzyme A], the “POR activity, pyruvate- and CoA-dependent methyl viologen reduction” value in data set [5] was “The pyruvate- and coenzyme A-dependent reduction of the methyl viologen was measured for POR activities”.

B1: TgPDC/POR (Thermococcus guaymasensis) (protein)
chain 1: MPIRTVMKANEAAAWAAKLAKPKVIAAFPITPSTLVPEKISEFVANGELDAEFIKVESEHSAISACVGASAAGVRTFTATASQGLALMHEVLFIAAGMRLPIVMAIGNRSLSAPINIWNDWQDSISERDTGWLQFYAENNQEALDLILIAYKVAEDERVLLPAMVGFDAFILTHTVEPVEIPDQELVDEFLGEYEPKHAYLASARPLTQGTLAFPAHYMEARYTVWQANENAKKVIDEVFAEFEKRFGRKYQKVEEYRTDDAEIIFVTMGSLAGTVKEYVDHLREKGIKAGAAKLTVYRPFPIEEVRELAKKAKVLALLEKNVTFSVGGALFQDFSRALINQEEKPKIVDFILGLGGRDVTFKDLDEALAIAQKALNGEKVDEVNWIGLRKEIL
chain 2: MAVRKPPITTREYWAPGHAACAGCGCAIALKLATKAFSEAMEEKYGDPNAFAIAQATGCMEVVSAVFPYTAWKVPWVHVAFENAAAAASGVEAAWKKLGRKGKILAIGGDGGTADIGMQALSGMLERRHNVVYLMYDNEAYMNTGIQRSSSTPYGAWTTTSPPGKYSIGEDKPKKWVALIAAAHQVPYVATASIGNPFDFVRKMKKAAKVDGPAFVQVHCTCPTGWKSPLEKGVEIARLAIETGVWPLFEIENGDFHNIKIQPPGGGAKVTREGGRIVAIEFKKPIEEYLKLQGRFKHLFKQPEAIDVMREQIKAMWKVLGVDVTLPKPEE
notes: native, purified anaerobically from T. guaymasensis cells; no tag; dimer of heterotetramers, 258 kDa by gel filtration; with Pyruvate synthase subunit PorD; Pyruvate/ketoisovalerate oxidoreductases common subunit gamma
In the case of B1, the results for the Km in data set [6] and in data set [7] were 250 ± 50 µM and 530 ± 30 µM, respectively. The Vmax – broadly, the rate approached at saturating substrate – in data set [6] turned out to be 3.8 µmol/min/mg; in data set [7], 18 µmol/min/mg.

B2: bifunctional pyruvate decarboxylase/pyruvate ferredoxin oxidoreductase from Pyrococcus furiosus, heterotetramer (complex)
chain 1: MPIRKVMKANEAAAWAAKLAKPKVIAAFPITPSTLIPEKISEFVANGELDAEFIKVESEHSAISACVGAAAAGVRTFTATASQGLALMHEILFIAAGMRLPIVMAIGNRALSAPINIWNDWQDTISQRDTGWMQFYAENNQEALDLILIAYKVAEDERVLLPAMVGFDAFILTHTVEPVEIPDQEVVDEFLGEYEPKHAYIDPARPITQGSLAFPAHYMESRYTVWEAMERAKKVIDEAFAEFEKKFGRKYQKIEEYKTEDADIIFVTMGSLAGTLKEWIDKKREEGYKVGAAKITVYRPFPVEEIRELAKKAKVLAFLEKNITIGLYGAVFTDASAALINESEKPLMVDFIVGLGGRDVTFNQLDEALEIAEKALKEGKVENPINWIGLRWELVK
chain 2: MAVRKPPITTREYWAPGHAACAGCGCATALRLATKALSEAMEEKYGDPNAFAIAHATGCMEVVSAVFPYTAWKAPWIHVAFENAAAVASGIEAAWKKLGRKGKILAIGGDGGTADIGLQALSGMLERWHNVLYLMYDNEAYMNTGIQRSSSTPYGAWTTTSPPGKYSVGEDKPKKWVALIAAAHQIPYVATASIGNPLDFVRKIKKAGKIDGPAFVQVLCTCPTGWRSPLEKGVEIARLAIETGIWPLFEIENGDIWNIKIQPPGGGAKVYKEGNRVVRIEFKKPIEEYLKLQGRFKHLFKRPEAIEELRNQVKAMWKVLGVEAILPRPEE
chain 3: MIEVRFHGRGGQGAVTAANILAEAAFLEGKYVQAFPFFGVERRGAPVTAFTRIDNKPIRIKTQIYEPDVVVVLDPSLLDAVDVTAGLKDEGIVIVNTEKSKEEVLEKLKKKPKKLAIVDATTIALEILGLPITNTAILGAVAKATGLVKIESIEEAIKDTFSGELGEKNARAAREAYEKTEVFEL
chain 4: MAESPFKADIERAQKELSEKMTPGAIVYIPGSSVINKTGSWRVFKPEFNRDKCVRCYLCYIYCPEPAIYLDEEGYPVFDYDYCKGCGICANECPTKAIEMVREVK
notes: alpha subunit (PorA) of pyruvate ferredoxin oxidoreductase, Pyrococcus furiosus; beta subunit (PorB) of pyruvate ferredoxin oxidoreductase, Pyrococcus furiosus; gamma subunit (Por/VorG) of pyruvate ferredoxin oxidoreductase, Pyrococcus furiosus; delta subunit (PorD) of pyruvate ferredoxin oxidoreductase, Pyrococcus furiosus; One heterotetramer (one copy of each subunit); the native enzyme is …
Turning to B2, in data set [8], the “stoichiometry N” value is 2.
